Target: stabilized pre-fusion RSV F glycoprotein (DS-Cav1) (respiratory syncytial virus (strain not stated)) (UniProt P03420)
Assay: crystal structure; RB1 Fab with DS-Cav1, complex purified by SEC; crystals in 100 mM Tris pH 8.5, 12% PEG 8000, 200 mM ammonium sulfate; 3.4 A

“stabilized pre-fusion RSV F glycoprotein (DS-Cav1) (from UniProt P03420 137-513) (natural protein)” gave a stoichiometry N of 3.

Reference: PMC6742648
